Square brackets hold non-standard residues; d marks the D form. * marks the point of attachment. Palmitoyl = CCCCCCCCCCCCCCCC(=O)*; pS = N[C@@H](COP(=O)(O)O)C(=O)O; C16 = 16 carbon alkyl tail
Legend:
Format in all cases: physicochemical
[1] = Gelation of charged peptide amphiphile solutions with ions or with each other; details: positive PA in Ca+2 (reaction 4); negative PA in PO4−3 (reaction 5)
Excerpt: In another example of this invention, the composition and method consists of using highly charged peptide amphiphile species (16 carbon alkyl tail with a sequence like CCCCGGGSS(P)DS(P)D (SEQ ID NO: 14) with a −7 charge, for example) dissolved in a solution of negative ions (phosphate ions with a −3 charge), call this solution X. A second solution with a positively-charged peptide amphiphile species (such as 16 carbon alkyl tail with a sequence like ACAAGGGKRGDS (SEQ ID NO: 21)—an amine terminated PA at +1 charge) in a solution with positively-charged ions, such as Ca^2+; call this solution Y. In both solutions the peptide heads are charged and the structural element of the peptide can be varied, to give different charged peptide-amphiphile species, depending on the application.
The positive and negative peptide amphiphiles alone (no added salt ions) will gel each other, reaction 1, when mixed in the right ionic ratios (1:7, (−):(+) in this instance), forming mixed peptide amphiphile nanofibers, theoretically composed of 7 positive peptide amphiphiles for every 1 of the negative peptide amphiphiles. The positive peptide amphiphile solution Y may be gelled, reaction 2, with the negative ions (for example a solution containing phosphate ion PO4^−3). […] Mixing the positive and negative ions (calcium cation with phosphate anion) will make calcium phosphate mineral (reaction 6). […]

Solubility in water = details: for concentration at which the molecules dissolve: pH 7.5-adjusted water
Description: (§1) The two molecules dissolve in pH 7.5-adjusted water at a concentration of about 10 mg/mL. Molecule 1 has a charge of (−1) and molecule 2 has a charge of (+2) under these conditions.
Cleavage and deprotection of the molecules was accomplished with a mixture of trifluoroacetic acid (TFA) and triisopropylsilane (TIS) in a ratio of 95:5 for three hours at room temperature. The cleavage mixture and two subsequent TFA washings were filtered into a round bottom flask. The solution was roto-evaporated to a thick viscous solution. This solution was triturated with cold diethylether. The white precipitate was collected by filtration, washed with copious cold ether and dried under vacuum. The molecules were then dissolved in water at a concentration of 10 mg/mL, adjusting the pH to improve solubility. The solution was initially acidic in both cases. In the case of molecule 1, the pH was raised to about pH 8 with 2M and 100 mM KOH, then back-titrated to pH 7.

[2] = Self assembly/gelation with monovalent salts (KCl, NaCl); details: mixing with 200 mM KCl or NaCl solutions
Description: as §1
In all cases self assembled gels comprised of the nanofibers were formed similar to those described elsewhere (Hartgerink et al., 2001; Hartgerink et al., 2002). In contrast no self assembly or gel formation was observed when other negatively or positively charged peptide-amphiphiles were exposed to the NaCl or the KCl at concentrations up to 6 M. The fact that molecules 1 and 2 assemble in the presence of the monovalent salts sets them apart from the other molecules studied. […] The reason for this difference may be in the structure of these molecules. Both these molecules contain IKVAV (SEQ ID NO: 1) sequence at the c-terminus of the peptide segment. […]
Transmission Electron Micrographs of samples of the supramolecular compositions from the multi-dimensional peptide-amphiphiles, Molecule 1 and Molecule 2, were prepared as follows. A small sample of the supramolecular composition gel, prepared in bulk as described above, was smeared onto a holey carbon coated TEM grid (Quantifoil). […]

[3] = Self assembly with CaCl2 and hydroxyapatite mineralization of nanofiber gel (TEM, electron diffraction)
Description: A liquid composition for the self assembly of (1) and mineralization of hydroxyapatite was prepared by dissolving […] NaH2PO4 (Aldrich) into 200 microliters of (1) at a concentration of 10 mg/ml in water. The pH of the solution was adjusted to 7.7.
The liquid composition containing (1) and NaH2PO4 was mixed with 40 micromoles of CaCl2 (Aldrich).
Samples of the gel after 2 hours, 1 day, and 5 days were mounted on carbon-coated TEM grids. TEM studies of the 1 and 5 day samples show a multi-crystalline material composed of plate like crystals˜5 nm thick and 50 to 100 nm long. The plate like crystals were similar to those observed in the mineralization experiments on the pre-assembled template.

Row | Substance | gelation in ions of the same charge sign [1] | concentration at which the molecules dissolve (Solubility in water) | gel formation with monovalent salt [2] | also measured
1 | ACAAGGGKRGDS [positively-charged peptide amphiphile, 16 carbon alkyl tail, amine terminated PA] | does not gel | – | – | –
2 | C15H31C(O)-CCCCGGGEIKVAV-COOH (Palmitoyl-CCCCGGGEIKVAV-OH; cysteine pairing not given here) [PA 22] | – | about 10 mg/mL | self-supporting gel forms | –
3 | C15H31C(O)-CCCCGGGEIKVAV-NH2 (Palmitoyl-CCCCGGGEIKVAV-NH2; cysteine pairing not given here) [Molecule 2] | – | about 10 mg/mL | self-supporting gel forms | pH dependence of solubility (Solubility in water; water, 10 mg/mL, pH adjusted with KOH): most soluble at low pH
4 | C15H31C(O)-CCCCGGGS(P)RGD-COOH (Palmitoyl-CCCCGGG[pS]RGD-OH; cysteine pairing not given here) [PA 18] | – | – | – | self assembled gel formation ([3]; addition of CaCl2 to 10 mg/ml peptide-amphiphile preloaded with NaH2PO4, pH 7.7): formed immediately; time until gel turned a white color (mineralization started) ([3]; after CaCl2 addition): about 2 hours
5 | CCCCGGGSS(P)DS(P)D (C16-CCCCGGGS[pS]D[pS]D-OH; cysteine pairing not given here; also: C16 alkyl tail) | does not gel | – | – | –

From patent US8124583B2, “Composition and method for self-assembly and mineralization of peptide-amphiphiles” (Northwestern University, priority 2002, dated 2012)
